Results from publication PMC4465062.

Target: HOXD13 DNA binding domain (D13DBD) (Mus musculus, UniProt P70217)
Test: NMR

B1: HOXD13 duplex DNA (dsDNA)
DNA 1: CAACGTTAAAAC
DNA 2: GTTTTAACGTTG
binding result: binds
